Results published in patent US20250250357A1 (NANJING ZAIMING PHARMACEUTICAL, published 2025).

B1: S009-F1.59.1 (antibody, human IgG1, kappa, V domains shown)
VH: EVKLEGSGGGLVQPGGSMMLSCVATGFTFSSYWMNWVRQSPDRGLEWVAEIRLKSNGFAAFYAESVKGRFTISRDDSKSSVYLQMNNLRTEDTGIYYCTYFVHWGQGILVTVSE
VL: DIVLTQSPTSLAVSLGQRATISCRTSESVEYFGTILIQWYQQKPGQPPKLLIFGASNVESGVPARFSGSGSGTDFSLNIHPVEEEDIAMYFCQQNRKVPYTFGGGTTLELKR
notes: Human-murine chimeric antibody, human IgG1/kappa constant regions
B2: S009-F2.47.1 (antibody, human IgG1, kappa, V domains shown)
VH: QVQLQQPGAELVKPGASVKLSCKASGYTFTSYWMHWVKQRPGQGLEWIGMIHPNSGSTNYNEKFKSKATLTVDKSSSTAYMQLSSLTSEDSAVYYCARPVVPYWYFDVWGTGTTVTVSS
VL: DIVMTQSQKFMSTTVGDRVSITCKASQNVGTAVAWYQQKPGQSPKLLIYSASNRYTGVPDRFTGSGSGTDFTLTISNMQSEDLADYFCQQSSSYPLTFGAGTKLELKR
notes: as for B1
B3: S009-F2.23.12 (antibody, human IgG1, kappa, V domains shown)
VH: QVQLQQPGTELVKPGASVKLSCKASGYTFTNYWMHWVKQRPGQGLEWIGNINPSNGGPYYNERFRSKATLTVDKSSSTAYMQLSSLTSEDSAVYYCARPYYGSSYGYFDYWGQGTTLTVSS
VL: DIQMTQSPSSLSASLGGKVTITCKASQDINKYIAWYQHKPGKGPRLLIHYTSELQPGIPSRFSGNGSGRDYSFSISNLEPEDIATYYCLQYANPLRTFGGGTKLEIKR
notes: as for B1
B4: S009-F2.39.3 (antibody, human IgG1, kappa, V domains shown)
VH: QVQLQQPGTELVKPGASVKLSCKASGYTFTNYWMHWVKQRPGQGLEWIGNINPSSGDSYYNERFMSKAKMTVDKSSSTAYMQLSSLTSEDSAVYYCARSGGLWLAFWGPGTLVTVSA
VL: DIVMTQSPSSLAMSVGQKVTMSCKSSQTLLNSVSQNNYLAWYQQKPGQSPTLLVYFASTRESGVPDRFIGGGSGTDFTLTISSVQAEDLADYFCQQHYRTPYTFGGGTNLEIKR
notes: as for B1
B5: S009-F1.57.1 (antibody, human IgG1, kappa, V domains shown)
VH: EAQLQQSGAVFVKPGASVKLSCTASGFSSKDIFLHWVKQRPEQGLEWIGRIDPASDNTIYDPKFQDRATITSDRSSNTAYLQFSSLTSEDTAVYFCLYFDFWGQGTTLTVSS
VL: DIVMTQATPSISVTPGESVSISCRSSESLLHSNGNTYLYWFLQRPGQSPQLLIYRMSNLASGVPDRFSVSGSGTAFTLRISRVEAEDVGVYYCMQHLEYPLTFGAGTKLELKR
notes: as for B1
B6: S009-F2.58.8 (antibody, human IgG1, kappa, V domains shown)
VH: QVQLLQSGAELAKPGASVKLSCKASGYTFTSYWVHWVKQRPGQGLEWIGYINPNSGYTKYNQKFKDKATLTADKSSSTAYMQLSSLTYEDSAVYYCADHYYGSSRDYFDYWGQGTTLTVSS
VL: QIVLTQSPAIMSASPGEKVTMTCSASSSVSYMYWYQQRPGSSPRLLIYDTSNLASGVPVRFSGSGSGTSYSLTISRMEAEDAATYYCQQWNSYPYTFGGGTKLEIKR
notes: as for B1
B7: S009-F1.56.1 (antibody, human IgG1, kappa, V domains shown)
VH: EVQLQQSGAEVVKPGASVKLSCTASGFNIRHTYMHWVKQRPEQGLEWIGRIDPANGNTEYDPKFQGKATITADTSSNTAYLQLSSLTSEDTAVYYCARDGWYIDVWGAGTTVTVSS
VL: DIVMSQSPSSLAVSVGEKVTMSCKSSQSLLYSNNQKNYLAWYQQKPGQSPKLLIYWASTRESGVPDRFTGSGSGTDFTLTISSVKAEDLAVYYCQRYYSYPWTFGGGTKLEIKR
notes: as for B1

Key:
[1] = biological target: T1, human MSLN-R3-3 polypeptide (human); assay: ELISA, coated MSLN-R3-3;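 note: chimeric antibodies in serial dilution bound to plate-coated antigen for 2 h at 37 °C, with a negative control antibody alongside, and TMB colour development stopped with HCl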
T1 construct: also called human MSLN-R3-3 protein; hMSLN-R3-3
Description: The plate was sealed with a plastic film and incubated at 4° C. overnight. The next day, the plate was washed twice with PBST, and a blocking buffer [PBS+2% (w/w) BSA] was added for blocking at room temperature for 2 h. The blocking buffer was discarded, and a chimeric antibody or negative control antibody serially diluted from 100 nM was added at 50 μL/well. After incubation at 37° C. for 2 h, the plate was washed 3 times with PBST. […] After incubation at 37° C. for 2 h, the plate was washed 5 times with PBST. A TMB substrate was added at 50 μL/well for incubation at room temperature for 5-10 min, and then a stop solution (1.0 N HCl) was added at 50 μL/well.

[2] = biological target: T2, human MSLN-R3-his protein (human, UniProt Q13421 487-598); assay: ELISA, coated MSLN-R3
T2 construct: Region 3 of human MSLN, His-tagged; also called human MSLN-R3 protein; hMSLN-R3-his; not shown: His tag

[3] = biological target: T3, human MSLN-R2-his protein (human, UniProt Q13421 391-486); assay: ELISA, coated MSLN-R2;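 note: chimeric antibodies bound to blocked coated plates for 2 h at 37 °C, TMB colour development stopped with HCl, with a negative control antibody for comparison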
T3 construct: Region 2 of human MSLN, His-tagged; also called human MSLN-R2 protein; hMSLN-R2-his; not shown: His tag

[4] = biological target: T4, human MSLN-R1-his protein (human, UniProt Q13421 296-390); assay: ELISA, coated MSLN-R1;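 note: serially diluted chimeric antibodies bound to the coated, BSA-blocked plate for 2 h at 37 °C, with TMB colour read after acid stop and a negative control antibody alongside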
T4 construct: Region 1 of human MSLN, His-tagged; also called human MSLN-R1 protein; hMSLN-R1-his; not shown: His tag
T4 chain: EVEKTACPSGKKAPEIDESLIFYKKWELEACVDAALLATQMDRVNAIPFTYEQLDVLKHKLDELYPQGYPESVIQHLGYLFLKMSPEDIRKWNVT

[5] = biological target: T5, human MSLN-FL-his protein (human, UniProt Q13421 296-580); assay: ELISA, coated MSLN full-length;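 note: binding of chimeric antibodies to plate-bound antigen, read by TMB colour after acid stop, antibody incubated 2 h at 37 °C, negative control antibody run alongside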
T5 construct: also called human MSLN full-length protein; hMSLN-FL-his; not shown: His tag

T2 sequence (Q13421 495-606): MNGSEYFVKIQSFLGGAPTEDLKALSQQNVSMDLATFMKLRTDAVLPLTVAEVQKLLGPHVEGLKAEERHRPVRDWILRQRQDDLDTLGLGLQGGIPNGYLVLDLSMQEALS
T3 sequence (Q13421 other isoform, or with tags, fused parts or gaps): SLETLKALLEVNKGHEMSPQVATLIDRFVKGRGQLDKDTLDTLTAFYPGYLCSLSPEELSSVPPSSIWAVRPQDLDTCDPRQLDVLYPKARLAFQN

Binder	OD450 at 0.0001 nM [1] [OD450]	OD450 at 0.001 nM [1] [OD450]	OD450 at 0.01 nM [1] [OD450]	OD450 at 0.1 nM [1] [OD450]	OD450 at 0.0001 nM [4] [OD450]	OD450 at 0.001 nM [4] [OD450]	OD450 at 0.01 nM [4] [OD450]	OD450 at 0.1 nM [4] [OD450]	OD450 at 1 nM [4] [OD450]	OD450 at 10 nM [4] [OD450]	OD450 at 100 nM [4] [OD450]	OD450 at none (no antibody) [4] [OD450]	OD450 at 0.0001 nM [5] [OD450]	OD450 at 0.001 nM [5] [OD450]	OD450 at 0.01 nM [5] [OD450]	OD450 at 0.1 nM [5] [OD450]	OD450 at 1 nM [5] [OD450]	OD450 at 10 nM [5] [OD450]	OD450 at 100 nM [5] [OD450]	OD450 at none (no antibody) [5] [OD450]	further results
B1	0.06	0.06	0.06	0.06	–	–	–	–	–	–	–	–	–	–	–	–	–	–	–	–	OD450 at 1 nM [1]: 0.07 OD450; OD450 at 10 nM [1]: 0.07 OD450; OD450 at 100 nM [1]: 0.18 OD450; OD450 at none (no antibody) [1]: 0.07 OD450; OD450 at 0.0001 nM [2]: 0.05 OD450; OD450 at 0.001 nM [2]: 0.06 OD450; OD450 at 0.01 nM [2]: 0.17 OD450; OD450 at 0.1 nM [2]: 1 OD450; OD450 at 1 nM [2]: 1.62 OD450; OD450 at 10 nM [2]: 2.05 OD450; OD450 at 100 nM [2]: 2.51 OD450; OD450 at none (no antibody) [2]: 0.05 OD450; OD450 at 0.0001 nM [3]: 0.03 OD450; OD450 at 0.001 nM [3]: 0.04 OD450; OD450 at 0.01 nM [3]: 0.06 OD450; OD450 at 0.1 nM [3]: 0.05 OD450; OD450 at 1 nM [3]: 0.04 OD450; OD450 at 10 nM [3]: 0.05 OD450; OD450 at 100 nM [3]: 0.06 OD450; OD450 at none (no antibody) [3]: 0.04 OD450
B2	–	–	–	–	0.05	0.05	0.05	0.05	0.09	0.23	0.36	0.06	0.06	0.1	0.45	1.78	2.31	2.4	2.57	0.06	–
B3	–	–	–	–	0.05	0.05	0.06	0.05	0.05	0.05	0.06	0.06	0.05	0.06	0.24	1.27	2.21	2.5	2.72	0.06	–
B4	–	–	–	–	0.05	0.05	0.05	0.05	0.05	0.06	0.07	0.06	0.05	0.05	0.08	0.42	1.57	2.37	2.53	0.06	–
B5	0.06	0.07	0.07	0.07	–	–	–	–	–	–	–	–	–	–	–	–	–	–	–	–	OD450 at 1 nM [1]: 0.07 OD450; OD450 at 10 nM [1]: 0.07 OD450; OD450 at 100 nM [1]: 0.11 OD450; OD450 at none (no antibody) [1]: 0.07 OD450; OD450 at 0.0001 nM [2]: 0.05 OD450; OD450 at 0.001 nM [2]: 0.05 OD450; OD450 at 0.01 nM [2]: 0.06 OD450; OD450 at 0.1 nM [2]: 0.19 OD450; OD450 at 1 nM [2]: 0.86 OD450; OD450 at 10 nM [2]: 1.81 OD450; OD450 at 100 nM [2]: 2.25 OD450; OD450 at none (no antibody) [2]: 0.05 OD450; OD450 at 0.0001 nM [3]: 0.05 OD450; OD450 at 0.001 nM [3]: 0.04 OD450; OD450 at 0.01 nM [3]: 0.04 OD450; OD450 at 0.1 nM [3]: 0.07 OD450; OD450 at 1 nM [3]: 0.04 OD450; OD450 at 10 nM [3]: 0.05 OD450; OD450 at 100 nM [3]: 0.11 OD450; OD450 at none (no antibody) [3]: 0.05 OD450
B6	–	–	–	–	0.05	0.05	0.05	0.06	0.13	0.43	0.83	0.06	0.05	0.06	0.09	0.4	1.56	2.47	2.87	0.06	–
B7	0.07	0.07	0.08	0.06	–	–	–	–	–	–	–	–	–	–	–	–	–	–	–	–	OD450 at 1 nM [1]: 0.07 OD450; OD450 at 10 nM [1]: 0.08 OD450; OD450 at 100 nM [1]: 0.12 OD450; OD450 at none (no antibody) [1]: 0.07 OD450; OD450 at 0.0001 nM [2]: 0.05 OD450; OD450 at 0.001 nM [2]: 0.04 OD450; OD450 at 0.01 nM [2]: 0.04 OD450; OD450 at 0.1 nM [2]: 0.05 OD450; OD450 at 1 nM [2]: 0.04 OD450; OD450 at 10 nM [2]: 0.05 OD450; OD450 at 100 nM [2]: 0.06 OD450; OD450 at none (no antibody) [2]: 0.06 OD450; OD450 at 0.0001 nM [3]: 0.04 OD450; OD450 at 0.001 nM [3]: 0.05 OD450; OD450 at 0.01 nM [3]: 0.19 OD450; OD450 at 0.1 nM [3]: 0.88 OD450; OD450 at 1 nM [3]: 2.04 OD450; OD450 at 10 nM [3]: 2.31 OD450; OD450 at 100 nM [3]: 2.62 OD450; OD450 at none (no antibody) [3]: 0.05 OD450
